Columns and labels:
[1] = target: HIV-1 JRFL Env (gp41 N-trimer region) (HIV-1 JRFL); experiment: cell-based or functional assay
[2] = target: HIV-1 HXB2 Env (gp41 N-trimer region) (HIV-1 HXB2) (UniProt P04578); experiment: cell-based or functional assay

Substance	no inhibition of viral infectivity (JRFL Env) up to the stated concentration [1]	no inhibition of cell-cell fusion or viral infectivity (HXB2 Env) up to the stated concentration [2]	IC50, viral infectivity JRFL [1]	IC50, viral infectivity HXB2 [2]
BPTI-H6 (from UniProt P00974 36-93)	> 1 µM	> 1 µM	–	–
MBP-H6 (from UniProt P0AEX9 27-392)	> 10 µM	> 1 µM	–	–
Ub-C37 (from UniProt P0CG48 1-76; P04578 625-661)	–	–	37.7 nM	6.8 nM
GFP-H6	> 1 µM	> 1 µM	–	–
